Source: the nanobody polyreactivity screen of Harvey et al. (2022)

Assay: yeast display, Sf9 membrane polyspecificity reagent, FACS + sequencing; frameworks hold sequencing errors
In short: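 Genes from sorted yeast were amplified by colony PCR, read by MiSeq 2 × 250 sequencing and filtered on CDR length. These cells carried a synthetic nanobody library in Saccharomyces cerevisiae BJ5465 and were sorted by FACS into low and high (top ~1%) gates on anti-HA and streptavidin fluorescence. Polyreactivity is labelled according to the gate of origin.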

Row | Sequence | polyreactivity (PSR sort gate)
1 | QVQLVESGGGLVQAGGNLRLSCAASGFIFTRYAMGWYRQAPGKERELVAAISTSGDRTYYADSVKGRFTISRDNAKNTVYLQMNSLKPEDTAVYYCAVEASRAGAWYEYWGQGTQVTVSS | high polyreactivity
2 | QVQLVESGGGLVQAGGNLRLSCAASGRTFRFNAMGWYRQAPGKERELVAAISFRGGSTYYADSVKGRFTISRDNAKNTVYLQMTSLKPEDTAVYYCAADNPYQGRKFDYWGQGTQVSVSS | high polyreactivity
3 | QVQLVESGGGLVQAGGNLRLSCAASGSIFAWYVMGWYRQPPGKERELVAGIDTSGGSTFYADSVKGRFTISRDNAKNTVYLQMNSLKPEDTAVYYCAADTWYRGPWEFDYWGQGTQVTVSS | low polyreactivity
4 | QVQLVESGGGLVQAGGPLRLSCAASGFTFGYYTMGWYRQAPGKERELVAAISWRGGRTYYADSVKGRFTISRDNAKNTVYLQMNSLKPEETAVYYCAAEYTYGWTYRPFVYWGQGTQVTVSS | high polyreactivity
5 | QVQLVESGGGLVQAGGPLRVSCAASGIIFDYNAMGWYRQAPGKERELVAAITSTDNTNYADSVKGRFTISRDNAKNTVYLQKNCLKPEDTAVYYCAACSYSRYHYSLYFDFDYWGQGTQVTVSS | low polyreactivity
6 | QVQLVESGGGLVQAGGRHRLSCAASGSTFSYNAMGWYRQAPGKERELVATISNTDSTNYADSVKGRFTISRDNAKNTVYLQMNSLKPEDTAVYYCAVVSARFDYEYWGQGTQVTVSS | low polyreactivity
7 | QVQLVESGGGLVQAGGRHRLSCAASGYIFKYYAMGWYRQAPGKERELVAAISRSGDSTYYADSVKGRFTISRDHAKNTVYLQMNSLKPEDTAVYYCNARYWHGPTGSDYWGQGTQVTVSS | high polyreactivity
8 | QVQLVESGGGLVQAGGRLLLSCAASGRTFYRNAMGWYRQAPGKEREFVPSIRTSGGSTYYADSVKGRFTISRDNAKNTVYLQMNSLKPEDTAVYYCKKYRQQGWEFDYWGQGTQVTVSS | high polyreactivity
9 | QVQLVESGGGLVQAGGRLLLSSAASGSTFIWNGMGWYRQAPGKERELVAAITSSSTYYADSVKGRFTISRDNAKNTVYLQMNSLKPEDTAVYYCAATFIQVVVNVQLYDYDYWGQGTQVTVSS | low polyreactivity
10 | QVQLVESGGGLVQAGGRLRFSCAASGSNFPVYAMGWYRHAPGKERELVADITYTTGSTYYADSVKGRFTISRDNAKNTVYLQMHSLKPEDTGVYYCNARDYTWYLHLGYSTLYWGQGTQVTVSS | low polyreactivity
11 | QVQLVESGGGLVQAGGRLRISCAASGFSFFSNAMGWYRQAPGKERELVAVIDRATSTYYADSVKGRFTISRDNAKNTVYLQMNSLKPEDTAVYYCNADGEEVYDFNYFLSFKGDYWGQGTQVTVSS | low polyreactivity
12 | QVQLVESGGGLVQAGGRLRISCAASGRIFPYNAMGWYRQAPGKERELVAAISFGGGRTYYADSVKGRFTISRDNAKNTVYLQMNSMKPEDTAVYYCNTASPQDIVFRVFYGGDYWGQGTQVTVSS | low polyreactivity
13 | QVQLVESGGGLVQAGGRLRLICAASGFNFKFYALGWYRQAPGKERELVAAITASSGRTYYADSVKGRFTISRDNAKNTVFLQMNSLKPEDTAVYYCAALGITYGRYDYWGQGTQVTVSS | high polyreactivity
14 | QVQLVESGGGLVQAGGRLRLSCAASASTFSDYAMGWYRQAPGKERELVATITSTGDTNYADSVKGRFTISRDNAKNTVYFQMYSLKPVDTAVYYCAAQHKKYGKRGLWNNFGYWGQGTQVTVSS | low polyreactivity
15 | QVQLVESGGGLVQAGGRLRLSCAASGFIFDTKAMGWYRKAPGKERELGARISSSAGSTYYADSVKGLFTISRDNAKNTVYLQMNSLKPEDTAVYYCNRTYRLPVYKVDYWGQGTQVTVSS | low polyreactivity
16 | QVQLVESGGGLVQAGGRLRLSCAASGFIFGAYAMGWYRQAPGKERELVAAINWSGGSTYYADSVKGRFTISRDNAKNTVYLQMNSLKPEDTAVYYCNARYNGFYAYPRHDYWGQGTQVTVSS | low polyreactivity
17 | QVQLVESGGGLVQAGGRLRLSCAASGFIFGTYTMGWYRQAPGKERELVAAITNGGSTYADSVKGRFTISRDNAKNTVYLQMISLKPEDTAVYYCAADYRGHSGAWYDYWGLGTQVTVSS | low polyreactivity
18 | QVQLVESGGGLVQAGGRLRLSCAASGFIFTPYTMGWYRQSPGTERELVAAITDGSSTYYADSVNGRFTISRDNAKNTVNLQMNSLKPEDTAVYYCNADGKQPYISWLYDYWGQGTQVTVSS | low polyreactivity
19 | QVQLVESGGGLVQAGGRLRLSCAASGFIYENAMGWYRQAPGKERELVAAISYSGGCTYYADSVKGRFTISRDNAKNTVYLQMNSLKPEDTAVYVCAADTQGYDYDYWGQGTQVTVSS | low polyreactivity
20 | QVQLVESGGGLVQAGGRLRLSCAASGFNFRYYAMGWYRQAPGKERELVAASSRSGGGTYYADSVKGRFTISRDTAQNTVYLQMNSLTPEDTAVYYCAADPSLGRGYDYWGQGTQVTVSS | high polyreactivity
21 | QVQLVESGGGLVQAGGRLRLSCAASGFTFGYYTMGWYRQAPGKESELVASISRTGGRTYADSVKGRFTISRDNAKNTVFLQMNSLKPEDTAVYYCNRKKYFSYPSDYGYGYWGQGTQVTVSS | high polyreactivity
22 | QVQLVESGGGLVQAGGRLRLSCAASGFTFRYYALGWYRQAPGKERELVAAISAGGGSTYYADSVKGRFTISRDNAKNNVYLQMHSQKPDDTAVYYCASAGARPGYDYWGQCTQVTVSS | high polyreactivity

Row | Sequence | polyreactivity (PSR sort gate)
23 | QVQLVESGGGLVQAGGRLRLSCAASGFTFSGYGMGWSRQAPGKERELVAAISNSGGRTYADSVKGRFTISRDTAQKTVYLQMNSLKPEDTAVYSCAKKPGGFSQASRVDYDYWGQGTQVTVSS | low polyreactivity
24 | QVQLVESGGGLVQAGGRLRLSCAASGFTFYRYPMGWYRQAPGTERELVAAITWSGGSTYYADSVKGRFTISRDTAMNTVYLQMNSLKPEDTAVYYCAADIYDGGFDYWGQGTQVTVSS | low polyreactivity
25 | QVQLVESGGGLVQAGGRLRLSCAASGFTFYVNAMGWYRQAPGKERELVAAIRGSGGSTYYADSVKGRFTISRVNAKITVYLQMNSLKPEDTAVYYCAKGKARSAQGSSRAYNYWGQGTQVTVSS | high polyreactivity
26 | QVQLVESGGGLVQAGGRLRLSCAASGFTLDRYAMGWYRQAPGKERELVAAITQSGVSTYYADSVKGLFTISRDNAKNTVYLQKNSLKPEETAVYYCNALLRRTYYRYTWGYGYWGQGTQVTVSS | high polyreactivity
27 | QVQLVESGGGLVQAGGRLRLSCAASGIIFSFYTMGWYIQAPGKERELVAAITWSGGSTYYADSVKGRFTISRDNAKNTVYFQMNSLKPEDTSVYYCNARNPWSKRSQGYSWGQGTQVTVSS | low polyreactivity
28 | QVQLVESGGGLVQAGGRLRLSCAASGIIRGSYAMGWYRQAPGKERELVAGINSGGGTYYADSVKGRFTISRDNAKNTVYLQMNSLKPEDTAVYYCNARKSSGLSSYDWYSWEYGYWGQGTQVTVSS | low polyreactivity
29 | QVQLVESGGGLVQAGGRLRLSCAASGIISRFYAMGWYRQAPGKERELVARISGSGGSTYYADSVKGRFTISRDNAKTTVYLQMNSLKPEDTAVYYFNAKSYRYFGVRRFNYWGQGTQVTVSS | high polyreactivity
30 | QVQLVESGGGLVQAGGRLRLSCAASGIRSYRNGMGWYRQAPGKERELVASISKRADSTYYADSVKGRFTISRDNAKITVYLQMNSLKPEETAVYYCYVVSKVIRGLSGDGYWGQGTQGTVSS | high polyreactivity
31 | QVQLVESGGGLVQAGGRLRLSCAASGITCYRYVMGWYRQAPGKERELVAAITSRGGSTSYADSVKGRFTISRDNAQNTVYLQMNSLKPEDTAVYYCAAVYRRDYDYWGQGTQVTVSS | high polyreactivity
32 | QVQLVESGGGLVQAGGRLRLSCAASGITFNSYAMGWYRQAPGKERELVAAITLTGGTTYYADSVKGRFTISRDNAKNTVYLQKNSLKPEDTAVYYCAAQYWWWSRFEYDSWGQGTQVTVSS | low polyreactivity
33 | QVQLVESGGGLVQAGGRLRLSCAASGITLRRNALVWYRQAPGKERELVARITWRGSTYYAESVKGRFTISRDNAKNTVYLQMNSLKPADTAVYYCAADYRSWQPPTKLPPGASDYWGQGTQVTVSS | low polyreactivity
34 | QVQLVESGGGLVQAGGRLRLSCAASGLIFDSYAMGWYRQAPGKERELVAAITYTGGSTYYADSVKGRFTISRDNAKNTVYLQMNSLKPEDTAVYYCAARSQSDRYGYWGQGTQVTVSS | high polyreactivity
35 | QVQLVESGGGLVQAGGRLRLSCAASGLTFDGYAMGWYRQAPGKERELVAAISWSGNTYYADSVKGRFKISRDNAKNTVYLQMNSLKPEDTAVYYCAVKYYHYGSWGQGTQVTVSS | high polyreactivity
36 | QVQLVESGGGLVQAGGRLRLSCAASGLTLQRYTKGWYRQAPGTERELVAAISRSGGGTYYADSVKGRFTISRDNAKNTVYLEMNSLKPEDTAVYYCAAGWYVYRPSRGYGYWGQGTQVTVSS | high polyreactivity
37 | QVQLVESGGGLVQAGGRLRLSCAASGNIFLDYTLGWYRQAPGKERELVAAISRGGSTYYADSVKGRFTISRDNAKNTVYLQMNSLKPEDTAVYYCNARCWEYFAHNYWGQGTQVTVSS | low polyreactivity
38 | QVQLVESGGGLVQAGGRLRLSCAASGNIFYYYAMGWYRQAPGKERELVADIRSSGRTNYADSVKGRFTISRDNATNTVYLQMNSLKPADTAVYYCATDKWYSYADKYDYWGQGTQVTVSS | low polyreactivity
39 | QVQLVESGGGLVQAGGRLRLSCAASGRIFAEYAMGWYRQAPGKVRELVAAISRRGGRPYYADSVKGRFTISRDNAKKPVYLQMNSLTPDDTAVYYCAADHGDPGGYDYWGQGTQVTVSS | high polyreactivity
40 | QVQLVESGGGLVQAGGRLRLSCAASGRIFDLNAMGWYRQAPGKERELVADINSGGSTYYADSVKGRFTISRDNAKNTVYLQMNSLKPEDTAVYYCDVRRNQHVVQMYYWGQGTQVTVSS | low polyreactivity
41 | QVQLVESGGGLVQAGGRLRLSCAASGRIFGKNVMGWYRQAPGKERELVAAISSGGSTYADSVKGRFTISRDNAKNTFYLQMNSLKPEDTAVYYCNTRPRLYGYRPSQYTYDYWGQGTQVTVSS | high polyreactivity
42 | QVQLVESGGGLVQAGGRLRLSCAASGRIFGRYAMGWYRQAPGKERELVAAITWTGGTTYYADSVKGRFTISRDNAKNTVYLQMNSLKPEDTAVYYCAARQGYGIYGDYYYWGQGTQVTVSS | high polyreactivity
43 | QVQLVESGGGLVQAGGRLRLSCAASGRIFTPNPMGWYRQAPGKERELVAAITTSAGRTYYADSVKGRFSISRDNAKNTVYLQMNSLKPEDTAVYYCAARYFPIRGYSWGQGSQVTVSS | high polyreactivity
